Laboratory results from patent EP3689907A1 (Numab Therapeutics AG, dated 2020).
Positions count from the first letter of the chain named.

T1: cynomolgus monkey IL-17A (cynomolgus monkey (Macaca fascicularis))
T1 chain: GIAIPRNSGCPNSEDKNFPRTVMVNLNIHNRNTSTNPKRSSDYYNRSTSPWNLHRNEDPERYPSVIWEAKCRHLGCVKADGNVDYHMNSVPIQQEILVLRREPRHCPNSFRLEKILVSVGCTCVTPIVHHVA

T2: human IL-17B (human, UniProt Q9UHF5 21-180)
T2 sequence: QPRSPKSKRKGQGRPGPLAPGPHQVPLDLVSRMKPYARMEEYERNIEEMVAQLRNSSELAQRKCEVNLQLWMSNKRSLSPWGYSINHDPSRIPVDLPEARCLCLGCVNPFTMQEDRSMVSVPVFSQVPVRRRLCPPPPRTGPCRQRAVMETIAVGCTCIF

T3: human IL-17C (human, UniProt Q9P0M4 19-197)
T3 sequence: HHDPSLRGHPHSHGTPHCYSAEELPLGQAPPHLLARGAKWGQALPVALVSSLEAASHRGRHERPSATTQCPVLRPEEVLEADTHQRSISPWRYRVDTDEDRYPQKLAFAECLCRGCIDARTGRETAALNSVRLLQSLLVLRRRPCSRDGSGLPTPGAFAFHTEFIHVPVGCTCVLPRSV

T4: human IL-17D (human, UniProt Q8TAD2 16-202, limits assumed)
T4 sequence: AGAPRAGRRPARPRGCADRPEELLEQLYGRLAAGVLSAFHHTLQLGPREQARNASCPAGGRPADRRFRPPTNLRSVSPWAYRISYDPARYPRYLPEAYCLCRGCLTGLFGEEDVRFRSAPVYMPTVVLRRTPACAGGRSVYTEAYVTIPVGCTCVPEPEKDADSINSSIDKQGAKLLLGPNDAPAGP

T5: human IL-17E (human, UniProt Q9H293 33-177)
T5 construct: also called IL-25
T5 sequence: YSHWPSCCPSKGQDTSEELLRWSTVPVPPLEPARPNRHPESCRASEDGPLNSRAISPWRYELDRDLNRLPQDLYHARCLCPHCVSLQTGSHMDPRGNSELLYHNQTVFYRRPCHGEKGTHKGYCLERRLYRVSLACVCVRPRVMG

T6: human IL-17F (human, UniProt Q96PD4 31-163)
T6 construct: Peprotech Cat. No. 200-25 in the direct ELISA
T6 sequence: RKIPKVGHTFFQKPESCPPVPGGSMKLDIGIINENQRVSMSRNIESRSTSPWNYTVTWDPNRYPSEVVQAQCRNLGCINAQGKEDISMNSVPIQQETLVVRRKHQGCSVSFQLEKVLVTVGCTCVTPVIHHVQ

B1: PRO571 (scFv)
scFv: DIQMTQSPSSLSASVGDRVTITCQASESIYRYLSWYQQKPGKAPKLLIYLASTLTSGVPSRFSGSGSGTDFTLTISSLQPEDFATYYCQSNFGTASTTYYNTFGGGTKLTVLGGGGGSGGGGSGGGGSGGGGSEVQLVESGGGLVQPGGSLRLSCAASGFSFSGFYYMCWVRQAPGKGLEWIGCIDTGDGTTYYASWAKGRFTISRDNSKNTVYLQMNSLRAEDTAVYYCARDAAYGGYAYPAHGMDLWGQGTLVTVSS
notes: also called 27-31-C04-sc01; 27_31_C04_sc01
B2: PRO592 (scFv)
scFv: B1 scFv with R152T, Q251P
notes: also called 27-31-C04-sc02; 27_31_C04_sc02

Experiments:
cynomolgus monkey IL-17A = target: T1, cynomolgus monkey IL-17A; assay: SPR (Biacore T200), cynomolgus IL-17A (Trenzyme), scFv as analyte
human IL-17B = target: T2, human IL-17B; assay: competition ELISA: coated scFv, biotinylated IL-17A, unlabeled cytokine as competitor
human IL-17C = target: T3, human IL-17C; assay: as above
human IL-17D = target: T4, human IL-17D; assay: as above
human IL-17E = target: T5, human IL-17E; assay: as above
human IL-17F = target: T6, human IL-17F; assay: as above

| Binder | Kd (cynomolgus monkey IL-17A) [pM] | koff (cynomolgus monkey IL-17A) [s⁻¹] | kon (cynomolgus monkey IL-17A) [M⁻¹ s⁻¹] | binding result (human IL-17B) | binding result (human IL-17C) | binding result (human IL-17D) | binding result (human IL-17E) | binding result (human IL-17F) |
| --- | --- | --- | --- | --- | --- | --- | --- | --- |
| B1 | 33.1 | 3.88e-05 | 1.17e+06 | no binding | no binding | no binding | no binding | no binding |
| B2 | 160 | 5.38e-05 | 336000 | no binding | no binding | no binding | no binding | no binding |
